Results as given in patent US8242083B2, “Kinase substrates” (PerkinElmer Health Sciences, Inc., priority 2008, dated 2012).

Columns and labels:
Type in all cases: biochemical
ARG = ARG (Homo sapiens, UniProt P42684); assay: TR-FRET kinase assay, ARG; conditions: Kinase Concentration 0.5 nM; 50 nM ULight-labeled substrate, 200 micromolar ATP, 2 hours
Experimental: (§1) TR-FRET kinase assays are performed under standardized conditions: various individual kinases are incubated with 50 nM of kinase substrate BRB1 labeled with the TR-FRET acceptor dye ULight (PerkinElmer) and 200 micromolar ATP in 10 μL of kinase assay buffer (50 mM HEPES pH7.5, 10 mM MgCl2, 3 mM MnCl2, 1 mM EGTA, 2 mM DTT and 0.01% Tween-20) for 2 hours at room temperature. Reactions are stopped with EDTA, and anti-phospho-tyrosine antibodies (clone PT66) labeled with the TR-FRET europium chelate donor dye are added to a final concentration of 2 nM in a final volume of 20 μL. The TR-FRET signal emitted at 665 nm is read one hour after the addition of antibodies using a TR-FRET plate reader such as the Envision® Multilabel Plate reader (PerkinElmer). The emitted signal at 665 nm is proportional to the extent of peptide phosphorylation, Control reactions indicative of background are performed excluding ATP from the reaction.
(§2) Assay conditions are identical to those used described for FIG. 1.

CSK = CSK (Homo sapiens, UniProt P41240); assay: TR-FRET kinase assay, CSK; conditions: Kinase Concentration 20 nM; 50 nM ULight-labeled substrate, 200 micromolar ATP, 2 hours
Experimental: as §1, §2

FER = FER (Homo sapiens, UniProt P16591); assay: TR-FRET kinase assay, FER; conditions: Kinase Concentration 0.25 nM; 50 nM ULight-labeled substrate, 200 micromolar ATP, 2 hours
Experimental: as §1, §2

JAK3 = biological target: T1, JAK3 (Homo sapiens, UniProt P52333); assay: TR-FRET kinase assay, JAK3; conditions: Kinase Concentration 0.5 nM; 50 nM ULight-labeled substrate, 200 micromolar ATP, 2 hours
T1 sequence (P52333 1-1124): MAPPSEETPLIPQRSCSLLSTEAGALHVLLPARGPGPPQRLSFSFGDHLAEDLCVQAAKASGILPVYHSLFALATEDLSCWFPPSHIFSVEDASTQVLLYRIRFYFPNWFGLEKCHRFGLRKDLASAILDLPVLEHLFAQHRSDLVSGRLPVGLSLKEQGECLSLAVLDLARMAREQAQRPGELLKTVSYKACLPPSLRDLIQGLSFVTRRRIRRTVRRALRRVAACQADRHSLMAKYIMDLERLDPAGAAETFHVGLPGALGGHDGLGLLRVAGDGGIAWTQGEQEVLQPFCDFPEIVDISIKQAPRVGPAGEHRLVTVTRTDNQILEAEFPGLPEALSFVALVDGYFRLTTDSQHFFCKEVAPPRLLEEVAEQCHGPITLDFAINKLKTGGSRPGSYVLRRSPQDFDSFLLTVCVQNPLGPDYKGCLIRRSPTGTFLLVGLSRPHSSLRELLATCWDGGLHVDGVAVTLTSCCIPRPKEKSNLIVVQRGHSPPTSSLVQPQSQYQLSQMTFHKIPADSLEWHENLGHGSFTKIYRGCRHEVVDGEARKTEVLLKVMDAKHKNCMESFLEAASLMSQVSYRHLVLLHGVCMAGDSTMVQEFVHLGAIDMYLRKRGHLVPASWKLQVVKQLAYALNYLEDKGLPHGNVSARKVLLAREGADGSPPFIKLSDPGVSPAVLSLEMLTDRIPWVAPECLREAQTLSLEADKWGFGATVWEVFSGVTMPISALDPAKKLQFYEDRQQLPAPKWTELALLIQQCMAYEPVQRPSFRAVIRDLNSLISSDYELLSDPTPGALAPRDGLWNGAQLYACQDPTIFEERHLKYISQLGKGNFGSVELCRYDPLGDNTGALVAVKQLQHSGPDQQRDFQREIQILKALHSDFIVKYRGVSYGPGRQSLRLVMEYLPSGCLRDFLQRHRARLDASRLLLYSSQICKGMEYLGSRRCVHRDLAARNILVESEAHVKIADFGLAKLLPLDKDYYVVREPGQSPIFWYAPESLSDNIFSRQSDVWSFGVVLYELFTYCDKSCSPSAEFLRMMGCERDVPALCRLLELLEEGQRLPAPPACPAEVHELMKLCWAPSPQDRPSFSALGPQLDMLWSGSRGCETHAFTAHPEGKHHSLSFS
Experimental: as §1, §2

LYNb = LYNb (Homo sapiens, UniProt P07948); assay: TR-FRET kinase assay, LYNb; conditions: Kinase Concentration 1 nM; 50 nM ULight-labeled substrate, 200 micromolar ATP, 2 hours
Experimental: as §1, §2

EphB3 = biological target: T2, EphB3 (Homo sapiens, UniProt P54753); assay: TR-FRET kinase assay, EphB3; conditions: Kinase Concentration 0.1 nM; 50 nM ULight-labeled substrate, 200 micromolar ATP, 2 hours
T2 sequence (P54753 34-998): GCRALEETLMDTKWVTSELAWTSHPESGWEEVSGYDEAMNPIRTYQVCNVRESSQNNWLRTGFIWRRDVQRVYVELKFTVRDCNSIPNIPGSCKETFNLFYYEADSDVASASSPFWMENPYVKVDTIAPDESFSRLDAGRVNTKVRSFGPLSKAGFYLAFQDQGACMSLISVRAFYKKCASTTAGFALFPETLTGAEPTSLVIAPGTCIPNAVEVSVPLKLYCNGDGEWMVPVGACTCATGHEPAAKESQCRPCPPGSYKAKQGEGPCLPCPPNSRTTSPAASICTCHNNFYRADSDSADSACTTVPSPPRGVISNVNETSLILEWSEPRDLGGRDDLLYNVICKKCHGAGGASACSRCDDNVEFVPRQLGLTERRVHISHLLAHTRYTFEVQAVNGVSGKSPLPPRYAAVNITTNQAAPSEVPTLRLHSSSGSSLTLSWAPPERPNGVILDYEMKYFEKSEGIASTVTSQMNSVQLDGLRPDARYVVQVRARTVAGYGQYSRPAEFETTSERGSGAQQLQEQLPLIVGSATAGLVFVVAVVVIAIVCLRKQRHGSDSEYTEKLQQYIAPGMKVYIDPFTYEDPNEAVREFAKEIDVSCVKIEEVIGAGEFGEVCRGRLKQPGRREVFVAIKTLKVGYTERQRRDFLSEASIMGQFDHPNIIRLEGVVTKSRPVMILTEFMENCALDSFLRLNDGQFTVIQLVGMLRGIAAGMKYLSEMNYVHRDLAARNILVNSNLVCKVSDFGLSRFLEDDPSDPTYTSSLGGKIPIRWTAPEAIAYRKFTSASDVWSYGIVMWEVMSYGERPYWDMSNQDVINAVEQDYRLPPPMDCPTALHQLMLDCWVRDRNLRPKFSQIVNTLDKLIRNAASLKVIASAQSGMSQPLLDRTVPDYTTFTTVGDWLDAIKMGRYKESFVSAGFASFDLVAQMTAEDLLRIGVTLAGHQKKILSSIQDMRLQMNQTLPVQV
Experimental: as §1, §2

RON = RON (Homo sapiens, UniProt Q04912); assay: TR-FRET kinase assay, RON; conditions: Kinase Concentration 0.25 nM; 50 nM ULight-labeled substrate, 200 micromolar ATP, 2 hours
Experimental: as §1, §2

Sequence of LYNb (P07948 1-491 isoform P07948-2, species assumed): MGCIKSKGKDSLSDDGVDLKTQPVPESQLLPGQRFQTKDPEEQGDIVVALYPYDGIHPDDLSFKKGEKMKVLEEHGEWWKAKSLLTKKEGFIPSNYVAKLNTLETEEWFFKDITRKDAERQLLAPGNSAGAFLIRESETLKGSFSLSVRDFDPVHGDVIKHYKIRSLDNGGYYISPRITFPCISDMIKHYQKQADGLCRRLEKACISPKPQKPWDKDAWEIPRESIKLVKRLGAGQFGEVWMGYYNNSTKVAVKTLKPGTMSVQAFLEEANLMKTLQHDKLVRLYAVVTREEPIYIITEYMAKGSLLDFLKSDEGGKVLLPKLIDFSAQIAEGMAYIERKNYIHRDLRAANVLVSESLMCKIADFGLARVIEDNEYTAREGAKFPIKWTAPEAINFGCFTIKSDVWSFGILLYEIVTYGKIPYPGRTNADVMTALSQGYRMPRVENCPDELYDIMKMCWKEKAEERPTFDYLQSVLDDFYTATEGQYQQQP
Sequence of FER (P16591 whole entry, species assumed): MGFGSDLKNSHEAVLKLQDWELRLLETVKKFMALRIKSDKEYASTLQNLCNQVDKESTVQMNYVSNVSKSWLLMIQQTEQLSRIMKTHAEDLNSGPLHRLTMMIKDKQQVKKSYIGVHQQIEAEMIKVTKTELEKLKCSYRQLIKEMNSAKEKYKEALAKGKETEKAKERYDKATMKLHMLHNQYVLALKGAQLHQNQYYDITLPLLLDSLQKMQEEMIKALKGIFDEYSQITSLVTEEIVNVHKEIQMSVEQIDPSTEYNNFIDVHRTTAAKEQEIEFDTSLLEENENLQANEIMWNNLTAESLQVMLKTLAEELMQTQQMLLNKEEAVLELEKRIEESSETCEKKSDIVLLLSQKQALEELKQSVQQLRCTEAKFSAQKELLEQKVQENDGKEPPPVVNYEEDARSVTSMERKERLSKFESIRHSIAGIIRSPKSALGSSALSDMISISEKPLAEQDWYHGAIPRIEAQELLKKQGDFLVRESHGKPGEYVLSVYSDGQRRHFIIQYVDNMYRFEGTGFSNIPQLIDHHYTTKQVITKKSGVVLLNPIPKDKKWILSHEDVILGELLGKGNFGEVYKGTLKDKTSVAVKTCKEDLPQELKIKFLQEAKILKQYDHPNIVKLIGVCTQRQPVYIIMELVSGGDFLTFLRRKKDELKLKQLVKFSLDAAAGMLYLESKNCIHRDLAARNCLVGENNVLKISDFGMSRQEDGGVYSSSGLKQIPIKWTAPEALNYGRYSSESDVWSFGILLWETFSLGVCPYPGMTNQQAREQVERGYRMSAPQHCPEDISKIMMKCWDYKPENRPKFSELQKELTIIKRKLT
Sequence of CSK (P41240 whole entry, species assumed): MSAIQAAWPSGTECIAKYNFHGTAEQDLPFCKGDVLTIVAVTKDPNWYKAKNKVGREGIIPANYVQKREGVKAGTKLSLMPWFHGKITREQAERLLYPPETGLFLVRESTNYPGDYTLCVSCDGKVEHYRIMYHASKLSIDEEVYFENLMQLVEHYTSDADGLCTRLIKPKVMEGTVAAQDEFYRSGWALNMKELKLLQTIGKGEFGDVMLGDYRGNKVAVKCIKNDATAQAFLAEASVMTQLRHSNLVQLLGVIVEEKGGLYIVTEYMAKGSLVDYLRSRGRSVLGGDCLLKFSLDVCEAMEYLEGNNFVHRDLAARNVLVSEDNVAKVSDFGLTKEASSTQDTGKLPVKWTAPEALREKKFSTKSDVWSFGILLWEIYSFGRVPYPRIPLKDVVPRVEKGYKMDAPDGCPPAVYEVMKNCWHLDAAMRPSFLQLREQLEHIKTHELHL
Sequence of ARG (P42684 whole entry): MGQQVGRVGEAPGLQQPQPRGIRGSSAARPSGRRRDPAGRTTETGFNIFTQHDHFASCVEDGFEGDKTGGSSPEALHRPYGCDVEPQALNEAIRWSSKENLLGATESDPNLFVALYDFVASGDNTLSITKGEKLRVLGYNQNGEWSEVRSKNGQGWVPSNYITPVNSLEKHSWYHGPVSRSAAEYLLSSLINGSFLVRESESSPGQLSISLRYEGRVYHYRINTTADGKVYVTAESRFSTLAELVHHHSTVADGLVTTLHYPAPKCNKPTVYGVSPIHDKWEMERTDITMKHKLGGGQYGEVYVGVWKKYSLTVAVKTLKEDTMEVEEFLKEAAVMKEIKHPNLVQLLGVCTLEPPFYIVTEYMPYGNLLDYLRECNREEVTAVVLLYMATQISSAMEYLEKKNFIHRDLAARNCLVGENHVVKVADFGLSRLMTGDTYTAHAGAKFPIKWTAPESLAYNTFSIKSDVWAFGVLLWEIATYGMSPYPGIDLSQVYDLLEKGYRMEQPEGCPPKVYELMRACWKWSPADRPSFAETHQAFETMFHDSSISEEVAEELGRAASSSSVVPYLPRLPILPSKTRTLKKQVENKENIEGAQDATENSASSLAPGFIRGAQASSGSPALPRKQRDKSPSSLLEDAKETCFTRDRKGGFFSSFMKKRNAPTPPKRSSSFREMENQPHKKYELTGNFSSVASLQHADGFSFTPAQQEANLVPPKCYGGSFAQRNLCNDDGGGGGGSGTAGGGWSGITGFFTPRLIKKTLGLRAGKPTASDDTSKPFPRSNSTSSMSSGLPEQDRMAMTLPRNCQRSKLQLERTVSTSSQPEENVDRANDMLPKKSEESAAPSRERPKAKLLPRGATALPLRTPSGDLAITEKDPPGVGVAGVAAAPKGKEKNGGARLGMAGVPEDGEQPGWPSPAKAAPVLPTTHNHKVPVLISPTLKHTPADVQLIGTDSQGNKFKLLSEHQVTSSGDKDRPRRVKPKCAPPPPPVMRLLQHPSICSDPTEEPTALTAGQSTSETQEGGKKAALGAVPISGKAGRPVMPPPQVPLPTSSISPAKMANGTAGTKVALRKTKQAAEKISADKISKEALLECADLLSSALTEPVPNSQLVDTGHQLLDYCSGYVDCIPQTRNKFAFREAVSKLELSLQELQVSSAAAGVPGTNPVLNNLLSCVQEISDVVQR

C AYE AYE AYE K EYA EYA EYA K AYA EYE R (CAYEAYEAYEKEYAEYAEYAKAYAEYER; tyrosine kinase substrate peptide) [BRB1]
Signal to Noise ratio with BRB1 Peptide (ARG): 10.6
Signal to Noise ratio with BRB1 Peptide (CSK): 27.2
Signal to Noise ratio with BRB1 Peptide (FER): 31.0
Signal to Noise ratio with BRB1 Peptide (JAK3): 16.1
Signal to Noise ratio with BRB1 Peptide (LYNb): 33.1
Signal to Noise ratio with BRB1 Peptide (EphB3): 24.7
Signal to Noise ratio with BRB1 Peptide (RON): 3.5
